This test deals with ZIKV sE-WT protein (Zika virus). Nature of the test: SPR (BIOCORE8000), sE amine-coupled on CM5 chip, antibody as mobile phase.

As to 2A10G6 antibody, the Kd came to 9.13 nM.

A word on the Kd: it is the free concentration of one partner at which half of the binding sites on the other are occupied at equilibrium, for simple one-to-one binding. Higher therefore signals weaker binding.

For the origin of these results see US20240173395A1.
